Assay results from paper PMC11931385, “Structural and functional analysis of cancer-associated missense variants in the retinoblastoma protein pocket domain” (The Journal of Biological Chemistry, 2025).
Changes are numbered by the printed parent chain. Numbers in names are those of the source. No end group written: not given here. TMR = tetramethyl rhodamine dye

T1: Rb^P E440K (human, UniProt P06400 380-788, E440K)
T1 construct: also called variant 1
T1 sequence (looked up): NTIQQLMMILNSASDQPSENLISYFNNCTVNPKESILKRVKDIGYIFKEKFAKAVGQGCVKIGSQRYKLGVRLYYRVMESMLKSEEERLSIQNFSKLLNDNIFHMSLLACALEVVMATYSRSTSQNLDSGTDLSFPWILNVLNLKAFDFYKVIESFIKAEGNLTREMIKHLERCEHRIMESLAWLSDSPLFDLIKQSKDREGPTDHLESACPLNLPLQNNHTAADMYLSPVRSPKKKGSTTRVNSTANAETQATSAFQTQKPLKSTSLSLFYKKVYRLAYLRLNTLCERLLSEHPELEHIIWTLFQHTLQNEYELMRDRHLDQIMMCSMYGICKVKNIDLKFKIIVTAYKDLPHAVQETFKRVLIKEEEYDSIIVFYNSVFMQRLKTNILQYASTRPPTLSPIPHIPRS

T2: Rb^P Q444L (human, UniProt P06400 380-788, Q444L)
T2 construct: also called variant 3
T2 sequence (looked up): T1 sequence (looked up) with K61E, Q65L

T3: Rb^P H673Y (human, UniProt P06400 380-788, H673Y)
T3 construct: also called variant 55
T3 sequence (looked up): T1 sequence (looked up) with K61E, H294Y

T4: Rb^P R451C (human, UniProt P06400 380-788, R451C)
T4 construct: also called variant 5
T4 sequence (looked up): T1 sequence (looked up) with K61E, R72C

T5: Rb^P H699P (human, UniProt P06400 380-788, H699P)
T5 construct: also called variant 63
T5 sequence (looked up): T1 sequence (looked up) with K61E, H320P

B1: TMR-E2F1^TD, peptide of the E2F1 transactivation domain (peptide)
peptide: {TMR}-GEGIRDLFDCDFGDLTPLD
notes: also called E2F^TD; source: synthetic peptide, bought: GenScript
B2: TMR-E7^LxCxE, LxCxE peptide of the E7 oncoprotein from HPV (peptide)
peptide: DLYCYEQLN
modifications: also: TMR label, position not given here
notes: source: synthetic peptide, bought: GenScript

Tests used:
Assay in all cases: fluorescence polarisation; 37 °C, after the 25 °C reading ramped over 7 min to 37 °C and 2 min incubation; unlabeled Rb^P against 1.5 nM TMR-E2F1^TD or 7.5 nM TMR-E7^LxCxE; 25 mM Tris pH 8.0, 200 mM NaCl, 1 mM DTT, 0.1% Tween-20; apparent Kd
Settings in all cases: both partners purified
Rb^P E440K = biological target: T1, Rb^P E440K
Rb^P Q444L = biological target: T2, Rb^P Q444L
Rb^P H673Y = biological target: T3, Rb^P H673Y
Rb^P R451C = biological target: T4, Rb^P R451C
Rb^P H699P = biological target: T5, Rb^P H699P

Binder | Kd (Rb^P E440K) [nM] | Kd (Rb^P Q444L) [nM] | Kd (Rb^P H673Y) [nM] | Kd (Rb^P R451C) [nM] | Kd (Rb^P H699P) [nM]
B1 | 27 | 30 | 66 | 51 | 68
B2 | 13 | 11 | 29 | 19 | 14
